Source: publication PMC4822818, “An IRF5 Decoy Peptide Reduces Myocardial Inflammation and Fibrosis and Improves Endothelial Cell Function in Tight-Skin Mice” (PLoS ONE, 2016)

Biological target: T1, Recombinant IRF5 (interferon regulatory factor 5), biotin-labeled (UniProt Q13568 1-498, biotin (EZ-Link NHS-PEG4-Biotin, ratio 1:1))
T1 construct: Interferon regulatory factor 5 (IRF5), recombinant; also called B-IRF5; source: made and purified by Top Gene Technologies (Montreal, Quebec, Canada)
T1 sequence (looked up): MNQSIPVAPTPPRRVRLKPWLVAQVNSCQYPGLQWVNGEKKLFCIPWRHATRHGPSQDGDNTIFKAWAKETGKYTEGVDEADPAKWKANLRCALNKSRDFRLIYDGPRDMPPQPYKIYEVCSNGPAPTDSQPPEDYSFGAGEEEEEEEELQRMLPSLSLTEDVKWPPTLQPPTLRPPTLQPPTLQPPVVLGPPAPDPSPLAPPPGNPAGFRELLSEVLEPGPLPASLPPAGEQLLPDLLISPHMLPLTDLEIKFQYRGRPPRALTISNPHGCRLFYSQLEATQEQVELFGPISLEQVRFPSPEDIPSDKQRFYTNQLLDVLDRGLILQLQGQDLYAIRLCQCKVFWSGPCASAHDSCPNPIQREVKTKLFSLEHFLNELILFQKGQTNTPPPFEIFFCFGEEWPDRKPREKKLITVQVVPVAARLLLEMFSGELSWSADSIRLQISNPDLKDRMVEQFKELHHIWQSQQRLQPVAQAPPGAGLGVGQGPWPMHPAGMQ
Assay: BLI; Octet RED; biotin-labeled IRF5 loaded onto streptavidin biosensors in PBS for 15 min; sensors incubated in PBS with increasing concentrations of IRF5D for 10 min; n = 3
Conditions: both partners purified

Kd: 3.72 µM
Binder: Ac-ELDWDADDIRLQIDNPD-NH2 [IRF5D (Ac-ELDWDADDIRLQIDNPD-NH2), IRF5 decoy peptide]
